Reference: patent US20090263375

How the values were obtained:
[1] = molecular target: T1, FLAG-Star-PAP ΔPRR ½ (lacking amino acids 223-274)
T1 chain: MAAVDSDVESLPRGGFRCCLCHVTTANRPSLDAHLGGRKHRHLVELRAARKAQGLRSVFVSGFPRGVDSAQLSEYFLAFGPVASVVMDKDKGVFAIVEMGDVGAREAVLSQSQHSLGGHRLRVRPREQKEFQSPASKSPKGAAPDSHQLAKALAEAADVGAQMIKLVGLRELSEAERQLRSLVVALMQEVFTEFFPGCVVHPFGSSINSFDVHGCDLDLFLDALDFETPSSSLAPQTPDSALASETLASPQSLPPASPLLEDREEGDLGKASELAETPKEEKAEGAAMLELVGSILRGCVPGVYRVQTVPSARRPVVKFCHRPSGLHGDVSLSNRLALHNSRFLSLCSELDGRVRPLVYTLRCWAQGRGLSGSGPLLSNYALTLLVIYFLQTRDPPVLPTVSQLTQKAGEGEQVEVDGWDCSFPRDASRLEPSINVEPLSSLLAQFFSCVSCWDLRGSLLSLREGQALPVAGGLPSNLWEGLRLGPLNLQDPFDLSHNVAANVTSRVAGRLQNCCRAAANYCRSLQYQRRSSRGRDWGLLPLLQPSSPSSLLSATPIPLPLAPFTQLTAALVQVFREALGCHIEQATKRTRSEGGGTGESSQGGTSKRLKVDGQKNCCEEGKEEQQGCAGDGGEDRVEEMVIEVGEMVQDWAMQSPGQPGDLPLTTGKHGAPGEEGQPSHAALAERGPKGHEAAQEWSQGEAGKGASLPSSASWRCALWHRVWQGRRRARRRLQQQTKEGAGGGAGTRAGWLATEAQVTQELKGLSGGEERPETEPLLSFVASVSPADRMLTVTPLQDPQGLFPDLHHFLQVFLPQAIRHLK

[2] = molecular target: T2, Flag-Star-PAP (full length)
T2 chain: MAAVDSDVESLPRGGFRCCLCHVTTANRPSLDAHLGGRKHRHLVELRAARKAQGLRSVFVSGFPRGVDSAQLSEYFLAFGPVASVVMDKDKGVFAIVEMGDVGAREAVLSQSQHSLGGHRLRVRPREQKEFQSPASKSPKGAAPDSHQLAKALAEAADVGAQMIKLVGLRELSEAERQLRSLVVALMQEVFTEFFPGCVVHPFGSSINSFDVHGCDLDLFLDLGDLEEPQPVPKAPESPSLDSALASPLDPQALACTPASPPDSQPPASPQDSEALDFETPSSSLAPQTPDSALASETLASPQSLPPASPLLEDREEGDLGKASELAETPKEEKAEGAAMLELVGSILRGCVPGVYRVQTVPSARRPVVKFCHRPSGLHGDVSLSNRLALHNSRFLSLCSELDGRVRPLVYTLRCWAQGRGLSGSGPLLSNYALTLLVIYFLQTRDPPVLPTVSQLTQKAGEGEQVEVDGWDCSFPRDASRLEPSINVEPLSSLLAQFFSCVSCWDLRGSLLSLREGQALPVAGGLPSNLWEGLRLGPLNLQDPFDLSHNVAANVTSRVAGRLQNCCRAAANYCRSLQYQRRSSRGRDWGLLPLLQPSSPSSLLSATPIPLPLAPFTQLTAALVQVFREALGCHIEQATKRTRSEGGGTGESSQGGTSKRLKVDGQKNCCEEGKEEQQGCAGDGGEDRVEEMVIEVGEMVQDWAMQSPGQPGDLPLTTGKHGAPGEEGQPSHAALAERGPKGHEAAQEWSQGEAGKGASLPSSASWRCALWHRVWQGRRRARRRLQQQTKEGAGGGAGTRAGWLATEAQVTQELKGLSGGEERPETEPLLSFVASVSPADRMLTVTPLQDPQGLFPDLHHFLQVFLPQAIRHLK

B1: FLAG-CKIα (wild type) (protein)
chain: MASSSGSKAEFIVGGKYKLVRKIGSGSFGDIYLAINITNGEEVAVKLESQKARHPQLLYESKLYKILQGGVGIPHIRWYGQGKDYNVLVMDLLGPSLEDLFNFCSRRFTMKTVLMLADQMISRIEYVHTKNFIHRDIKPDNFLMGIGRHCNKLFLIDFGLAKKYRDNRTRQHIPYREDKNLTGTARYASINAHLGIEQSRRDDMESLGYVLMYFNRTSLPWQGLKAATKKQKYEKISEKKMSTPVEVLCKGFPAEFAMYLNYCRGLRFEEAPDYMYLRQLFRILFRTLNHQYDYTFDWTMLKQKAAQQAASSSGQGQQAQTPTGF
Question: What does the source list for B1?
Answer: in vitro kinase assay: phosphorylation of FLAG-Star-PAP truncation and deletion mutants [1]: CKIα was able to phosphorylate all truncation mutants except those which lacked the first half of the proline rich region (ΔPRR ½, amino acids 223-274); in vitro kinase assay: phosphorylation of heat inactivated FLAG-Star-PAP [2]: Purified FLAG-CKIα was able to directly phosphorylate heat inactivated Star-PAP
